{
  "source": "paper PMC11909244",
  "about": "“Rice transcription factor bHLH25 confers resistance to multiple diseases by sensing H2O2”",
  "key": {"bHLH25 M256V": {"molecular_target": "bHLH25 M256V (Oryza sativa (Nipponbare), UniProt Q5SMX4 1-439, M256V)", "sequence (Q5SMX4 entry or part of it M256V | M256V M256V)": "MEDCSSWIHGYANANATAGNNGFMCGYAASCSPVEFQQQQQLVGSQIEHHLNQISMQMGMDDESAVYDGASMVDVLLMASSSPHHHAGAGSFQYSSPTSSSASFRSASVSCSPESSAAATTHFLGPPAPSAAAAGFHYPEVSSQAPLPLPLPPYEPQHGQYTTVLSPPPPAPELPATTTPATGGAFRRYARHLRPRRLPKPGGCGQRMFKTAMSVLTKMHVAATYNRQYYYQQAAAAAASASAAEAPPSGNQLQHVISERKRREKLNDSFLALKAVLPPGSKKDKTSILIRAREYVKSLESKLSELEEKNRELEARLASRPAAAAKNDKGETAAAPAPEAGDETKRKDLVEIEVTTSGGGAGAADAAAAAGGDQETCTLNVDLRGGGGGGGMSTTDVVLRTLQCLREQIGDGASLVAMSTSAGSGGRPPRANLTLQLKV", "assay": "EMSA; 10 mM Tris-HCl pH 7.5, 50 mM KCl, 50 ng/mL poly(dI-dC), 1 mM DTT, ~0.5 ug GST protein in 10 uL, 0.5 uM pmiR397b-G-box or 0.1 uM pCPS2-N-box biotin probe; temperature not stated", "settings": "protein: recombinant; tags: GST-SUMO; chain copies: 2; label: 5' biotin"}, "bHLH25 [1]": {"molecular_target": "T1, bHLH25 (Oryza sativa (Nipponbare), UniProt Q5SMX4 1-439)", "T1 sequence (Q5SMX4 entry or part of it)": "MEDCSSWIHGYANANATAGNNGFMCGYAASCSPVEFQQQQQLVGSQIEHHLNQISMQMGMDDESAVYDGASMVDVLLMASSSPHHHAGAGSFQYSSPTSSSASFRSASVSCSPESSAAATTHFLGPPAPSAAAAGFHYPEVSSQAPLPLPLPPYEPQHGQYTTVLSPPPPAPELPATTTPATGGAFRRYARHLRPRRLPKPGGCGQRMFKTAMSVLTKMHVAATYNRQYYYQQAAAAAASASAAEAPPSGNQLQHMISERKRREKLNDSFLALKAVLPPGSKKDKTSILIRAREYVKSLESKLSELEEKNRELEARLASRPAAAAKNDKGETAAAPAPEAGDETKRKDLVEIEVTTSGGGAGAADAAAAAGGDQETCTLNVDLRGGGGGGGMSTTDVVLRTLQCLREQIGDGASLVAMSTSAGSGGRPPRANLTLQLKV", "assay": "EMSA; 10 mM Tris-HCl pH 7.5, 50 mM KCl, 50 ng/mL poly(dI-dC), 1 mM DTT, ~0.5 ug GST protein in 10 uL, 0.5 uM pmiR397b-G-box or 0.1 uM pCPS2-N-box biotin probe; temperature not stated", "settings": "protein: recombinant; tags: GST-SUMO (pGEX-6p-1-SUMO); chain copies: 2; label: 5' biotin"}, "bHLH25 [2]": {"molecular_target": "T1, bHLH25", "assay": "competition; unlabeled competitor of N1; 10 mM Tris-HCl pH 7.5, 50 mM KCl, 50 ng/mL poly(dI-dC), 1 mM DTT, ~0.5 ug GST protein in 10 uL, 0.5 uM pmiR397b-G-box or 0.1 uM pCPS2-N-box biotin probe; temperature not stated", "settings": "protein: recombinant; tags: GST-SUMO (pGEX-6p-1-SUMO); chain copies: 2"}},
  "data": [
    {"binder": "bio-pCPS2-N-box (dsDNA) DNA 1: TTTCACAATCACGAGCTAGACTAA DNA 2: TTAGTCTAGCTCGTGATTGTGAAA", "values": [
      {"measurement": "binding result", "setting": "bHLH25 M256V", "result": "no binding"},
      {"measurement": "binding result", "setting": "bHLH25 [1]", "result": "binds"}
    ]},
    {"binder": "com-pmiR397b-G-box (dsDNA) DNA 1: GTACTTTGTCACGTCCTGATCGAT DNA 2: ATCGATCAGGACGTGACAAAGTAC", "values": [
      {"measurement": "binding result", "setting": "bHLH25 [2]", "result": "binds"}
    ]},
    {"binder": "bio-pmiR397b-G-box (dsDNA) DNA 1: GTACTTTGTCACGTCCTGATCGAT DNA 2: ATCGATCAGGACGTGACAAAGTAC", "values": [
      {"measurement": "binding result", "setting": "bHLH25 M256V", "result": "no binding"},
      {"measurement": "binding result", "setting": "bHLH25 [1]", "result": "binds"}
    ]}
  ]
}
